# Source: article PMC5440646, “T Cell Costimulation by CD6 Is Dependent on Bivalent Binding of a GADS/SLP-76 Complex” (Molecular and Cellular Biology, 2017)
# Where no end group is shown, it is not given here. [ ]: non-standard residue; d: D form. The star is where a group is joined. Biotin = O=C1N[C@H]2[C@H](CS[C@H]2CCCCC(=O)*)N1; pY = N[C@@H](Cc1ccc(OP(=O)(O)O)cc1)C(=O)O
# T1: GADS SH2 domain, His-tagged (UniProt O75791 58-149)
# T1 construct: GRB2-related adaptor downstream of Shc (GADS), SH2 domain; In the popinF vector, provided by the Oxford Protein Production Facility
# T1 sequence (looked up): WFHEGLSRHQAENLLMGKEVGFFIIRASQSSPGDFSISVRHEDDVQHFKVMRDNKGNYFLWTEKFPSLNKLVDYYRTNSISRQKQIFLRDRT
# What was measured:
# Experiment in all cases: SPR; biotinylated short peptides immobilised at ~25 response units on streptavidin-coated CM5 chips, BIAcore 3000; SH2 domains injected at 10 μl/min at 37°C; equilibrium binding, 1:1 Langmuir
# Details in all cases: both partners purified
# [1] = target: T1, GADS SH2 domain, His-tagged
# [2] = target: T2, GRB2 SH2 domain, His-tagged (UniProt P62993 60-152)
# T2 construct: In the popinF vector
# [3] = target: T3, TSAd SH2 domain, His-tagged (UniProt Q9NP31 95-186)
# T3 construct: T cell-specific adaptor protein (TSAd, SH2D2A), SH2 domain; In the popinF vector
# T3 sequence (Q9NP31 95-186): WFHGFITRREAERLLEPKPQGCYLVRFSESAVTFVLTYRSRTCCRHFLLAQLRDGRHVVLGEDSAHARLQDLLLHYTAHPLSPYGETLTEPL
# T2 sequence (P62993 60-152): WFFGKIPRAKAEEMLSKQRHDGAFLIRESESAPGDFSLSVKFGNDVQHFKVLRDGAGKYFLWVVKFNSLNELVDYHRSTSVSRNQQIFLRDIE
binder,measurement,setting,value
Biotin-LLHSD[pY]MNMTP (CD28-derived peptide containing the YXN motif; also called phosphorylated CD28-derived peptide; source: synthetic peptide (Peptide Protein Research Ltd.)) [CD28 pYMNM peptide (biotin-LLHSDpYMNMTP)],Kd,[1],2 to 3 µM
same,Kd,[2],3 µM
same,Kd,[3],74 µM
"Biotin-SSGEW[pY]QNFQP (CD6, human, cytoplasmic region around Y629; also called phosphorylated CD6 Y629 peptide; source: synthetic peptide (Peptide Protein Research Ltd.)) [CD6 pY629 peptide (biotin-SSGEWpYQNFQP)]",Kd,[1],1 to 3 µM
same,Kd,[2],2 to 4 µM
same,Kd,[3],26 to 58 µM
